From patent US20150232562A1 (Ablynx, published 2015)
Numbering of substitutions follows the chain as printed.

B1: 11B91/1-125 (VHH)
VHH: EVQLVESGGALVQPGGSLRLSCAASGSIRSINTMGWYRQAPGNQREFVAAVTEGGTTSYAASVKGRFTISRDKAKNTVLLQMDSLKPEDTAVYYCNADRFLYYSAGRYDTGSDIWGQGTQVTVSS
notes: C-term myc-His6 tag
B2: 22C65/1-124 (VHH)
VHH: EVQLVESGGGLVQAGGSLRLSCAVSGFLFDSYAMGWFRQAPGKEREFVAAIRWSGSATDYSDSVKGRFTISRDNAKNTVYLQMNSLIPEDTAVYYCAARKTYRSLTYYGEYDSWGQGTQVTVSS
notes: C-term myc-His6 tag
B3: 11B21/1-124 (VHH)
VHH: EVQLVESGGGLVQAGGSLRLSCAASGRTFSMYLMGWFRQAPGKEREFVSTINRRGGNTYYADSVKGRFTISRDNARNTVYLQMNSLKPEDTAVYYCAAGGHLLGYDVQWEPDYWGQGTQVTVSS
notes: C-term myc-His6 tag
B4: 13F101/1-124 (VHH)
VHH: EVQLVESGGGLVQAGGSLRLSCQLSGGTVSDLHMGWFRQAPGKEREFVGFTRWPSITYIAEHVKGRFTISRDNAKNTVYLQMNSLEREDTAVYYCAADRSYSIDYRHPDSYSYWGQGTQVTVSS
notes: C-term myc-His6 tag
B5: 11A43/1-123 (VHH)
VHH: EVQLVESGGGLVQAGGSLRLSCAASGSIFRVNHMGWYRQAPGKQREFVAAITSDHITWYADAVKGRFTISRDNAKNTVTLQMNSLRPEDTAVYYCAADPLLFYGVGSADVDYWGQGTQVTVSS
notes: C-term myc-His6 tag
B6: 11B81/1-126 (VHH)
VHH: EVQLVESGGGLVQAGGSLRLSCAASGRPVNNYIMGWFRQALGQGREFVAAINRNGATAAYADSVKGRFTISRDNAEDLLYLQMNLLKPEDTAVYYCAANSDSGFDSYSVWAAYEYWGQGTQVTVSS
notes: C-term myc-His6 tag
B7: 11C11/1-121 (VHH)
VHH: EVQLVESGGGLVQAGGSLRLSCAASGRTFSAYAMGWFRQAPGKERESVATIRWTGGSSSTSYADSVKGRFTISKNTAENTVYLQMNSLKPEDTAVYYCAVLLTVWDTYKYWGQGTQVTVSS
notes: C-term myc-His6 tag
B8: 13E61/1-123 (VHH)
VHH: EVQLVESGGGLVQAGGSLRLSCTASGQTFNMGWFRQAPGKEREFVAAISWSQYNTKYADSVKGRFTISRDNAINSLYLQMDTLKPEDTAVYYCAATNRWFSAVYDLPSRYTYWGQGTQVTVSS
notes: C-term myc-His6 tag
B9: 11B51/1-127 (VHH)
VHH: EVQLVESGGGLVQAGGSLRLSCAASGGTFSGRGMGWFRQAPGKEREFVAAVSWSGGNTYYADSVKGRFTISRDNAKSTVYLQMDSLKPEDTAVYYCAASRRFYSGLYYYTDDAYEYWGQGTQVTVSS
notes: C-term myc-His6 tag
B10: 14H21/1-125 (VHH)
VHH: EVQLVESGGGLVQAGGSLRLSCVRSGGYFGSYHIGWFRQAPGNEREFVAAITWNGASTSYADSVKGRFTISRSIAENTVYLQMNKVKPEDTAVYYCAARMYGSDWLPRPEDFDSWGQGTQVTVSS
notes: C-term myc-His6 tag
B11: 12D11/1-123 (VHH)
VHH: EVQLVESGGGLVQTGGSLRLSCAASGRTFSGSRMGWFRQAPGKEREFVAAIRWSGGITWYAESVKSRFTISRDNTKNTIDLQINSLKPEDTAVYYCAADVIYKNIGSGSFDYWGQGTQVTVSS
notes: C-term myc-His6 tag
B12: 12D14/1-123 (VHH)
VHH: B11 VHH with T14A, F37L, I51V, S66G
notes: C-term myc-His6 tag
B13: 13G61/1-118 (VHH)
VHH: EVQLVESGGGVVQAGGSLRLSCAPSGRTFSSYVMGWVRQAPGKAREFVAGITRNSGRTRYADSVKGRFTISRDNADNTVTLQMNSLKPEDTAVYYCAGGIDLYTFHYFGQGTQVTVSS
notes: C-term myc-His6 tag
B14: 14H41/1-118 (VHH)
VHH: B13 VHH with V11L, G56I, H106D
notes: C-term myc-His6 tag
B15: 11B71/1-126 (VHH)
VHH: EVQLVESGGGLVQAGGSLRLSCAASGRTFERYAMGWFRQAPGKEREFVATISWSGGRDTVYADSVKGRFTISRDNAKNTVYLQMNSLKPEDTAVYYCAAHKRTYELGAHSTDFGSWGQGTQVTVSS
notes: C-term myc-His6 tag
B16: 12C32/1-127 (VHH)
VHH: EMQLVESGGGLVQAGGSLRLSCATSERTFSTYTMAWFRQAPGKEREFVVAIKSSDNSTSYRDSVKGRFTISRDNAKSTMYLQMNSLKPEDTAVYYCAARREYSTIYTARYPGEYVYWGQGTQVTVSS
notes: C-term myc-His6 tag
B17: 12C121/1-126 (VHH)
VHH: EVQLVESGGDLVQPGESLRLSCAVSGVTVDYSGIGWFRQAPEKEREAVSCIESGDGTTTYVDSVKGRFTISRDNAKNAVYLQMNSLKPEDTGVYYCATAVFVDSGDFSVCRGVGYWGKGTQVTVSS
notes: C-term myc-His6 tag
B18: 11A81/1-125 (VHH)
VHH: EVQLVESGGALVQPGGSLRLSCAASDSIRSINIMGWYRQAPGKQREFVAAVTEDGSINYAESVKGRFTISRDKAKNALYLQMNSLKPEDMAVYYCNADRVLYYSDSRYYTGSNYWGQGTQVTVSS
notes: C-term myc-His6 tag
B19: 11B121/1-127 (VHH)
VHH: EVQLVESGGGLVQPGGSLRLSCAASGSSASINTMGWYRQAPGEQRELVAEITEGGIINYTDSVKGRFTISRDNAKNTVYLEMNNLKPEDTAVYYCNADRALYRNYSDGRYYTGYDYWGQGTQVTVSS
notes: C-term myc-His6 tag
B20: 12D92/1-123 (VHH)
VHH: EVQLVESGGGLVQAGGSLRLSCAASGRTYNMAWFRQAPGKEREFVAAMNWSGGSTKYAESVKGRFTISRANDNNPLYLQMNTLKPEDTAVYYCAATNRWYTGVYDLPSRYEYWGQGTQVTVSS
notes: C-term myc-His6 tag
B21: 13E101/1-128 (VHH)
VHH: EVQLVESGGGLVQAGGSLRLSCAVSGRTFNNDHMGWFRQAPGTERELVAATGRRGGPTYYADSVKGRFTISRDNAESTVYLQMNSLKAEDTAVYYCAANRYYCSTYGCLSTPRQYDYWGQGTQVTVSS
notes: C-term myc-His6 tag
B22: 13G51/1-127 (VHH)
VHH: EVQLVESGGGLVQAGGSLSLSCAASGGTFNGRAVGWFRQAPGEEREFVTGISWSGGSTDYADSVKGRFTISRDNSKNTVSLQMNSLKPEDTAVYYCAASRRFYSGLVYYSVDAYENWGQGTQVTVSS
notes: C-term myc-His6 tag
B23: 22B71/1-114 (VHH)
VHH: EVQLVESGGAFVQPGGSLRLSCAASGSDVWFNVMGWYRQGPGQQLELVASITYGGNINYGDPVKGRFSISRDNALKTVYLQMNSLKPEDTAVYYCYADLPSRLWGQGTQVTVSS
notes: C-term myc-His6 tag
B24: 22B85/1-120 (VHH)
VHH: EVQLVESGGGLVRPGGSLRLSCATSGSDIGINAMGWYRQAPGNQRELVATITGSTGTTYADSVKGRFAISRDGAKNTVYLQMDSLKPEDTAVYYCNLRVYTGTYGGRNYWGQGTQVTVSS
notes: C-term myc-His6 tag
B25: 22B610/1-120 (VHH)
VHH: EVQLVESGGGLVQPGGSLRLSCAASGSIFSINAMGWYRPAPGKQRELVARITSTGSTNYADSVKGRFTISRDNAKNTVYLQMNSLKPEDTAVYYCNADVSPSYGSRWYGWGQGTQVTVSS
notes: C-term myc-His6 tag
B26: 11A71/1-125 (VHH)
VHH: EVQLVESGGGLVQPGGSLRLSCAASRSIRSVSVMGWYRLAPGNQRELVATITADGITNYADSVKGRFTVSRDNGRNTVYLQMNSLKPEDTAVYYCNVDRLLYYSSGYYQTSVDVWGQGTQVTVSS
notes: C-term myc-His6 tag
B27: 21A121/1-123 (VHH)
VHH: EVQLVESGGGLVQAGGSLRLSCTASGRAFNMGWFRQAPGKEREFVAGVNWGGGSTKVADSVKERFTISRDYDNSPVYLQMNTLKPEDTAVYYCAATSRWYSAVYDLPTRYDYWGQGTQVTVSS
notes: C-term myc-His6 tag
B28: 22C51/1-121 (VHH)
VHH: EVQLVESGGGLVQAGASLRLSCAASGRTFSRYDIGWFRQAPGKGREFVAAINWSGGTTSFGDSVKGRFTISRDNAKNTVYLQMNSLKPEDTAVYYCAALRSWPRGVDSGSWGQGTQVTVSS
notes: C-term myc-His6 tag
B29: 14H91/1-127 (VHH)
VHH: EVQLVESGGGLVQAGGSLRLSCAASGRTFSRDVMGWFRQAPGKEREFVAAKTWSGASTYYADSVRGRFTISRDNAKNAVYLQMNSLKPEDTAVYYCAARDSSTLDSTYYVGGSYNYWGRGTQVTVSS
notes: C-term myc-His6 tag
B30: 13G31/1-125 (VHH)
VHH: EVQLVESGGGLVQAGGSLRLSCAASGGTFSRYKMGWFRQAPGKEREFVAASRWSGGIKYHADSVKGRFTISRDDAKNSIYLQMNTLKPEDTAVYYCAADDYLGGDNWYLGPYDSWGQGTQVTVSS
notes: C-term myc-His6 tag
B31: 11B12/1-118 (VHH)
VHH: EVQLVESGGGLVQAGGSLRLSCAASGRALINYAMGWFRQAPGKEREFVSAINWSGSHTDYGDSVKGRFAISRDNAKNTVYLQMHSLKPEDTAVYHCATGYSLPAFDSWGPGTQVTVSS
notes: C-term myc-His6 tag
B32: 12C81/1-117 (VHH)
VHH: EVQLVESGGGLVQPGGSLRLSCAGSGNIVRDNTMAWYRQAPGNQRDLVATINVGGGTYYAGPVKGRFTISRDNAKNSVYLQMNSLKPEDTSVYYCNVISGLVQRDYWGQGTQVTVSS
notes: C-term myc-His6 tag
B33: 12D61/1-116 (VHH)
VHH: EVQLVESGGGLVQPGGSLRLSCAASRSIFSPNVVGWYRQAPGKQRELVAAVTSGGITNYADSVKGRFTISRDNAKNTLYLQMNSLKAEDTAVYYCNARERGIYDSWGQGTQVTVSS
notes: C-term myc-His6 tag
B34: 12D31/1-115 (VHH)
VHH: EVQLVESGGGLVQPGGSLRLSCAASRNIFDFNDMGWYRQGPGKEREFVALINVGGVAKYEDSVKGRFTISRDNAENTVYLQMNNLKPEDMAVYYCNARILSRNYWGQGNQVTVSS
notes: C-term myc-His6 tag

The binders below were run against T1, recombinant human ErbB2/Fc chimera (human, UniProt P04626 23-652) (assay: ELISA, coated ErbB2/Fc).
T1 construct: bought from R&D Systems; also called rhErbB2-Fc; rhErb2-Fc; Fc part of the bought chimera not given; not described

| binding result | Binder |
| --- | --- |
| binds | B1 |
| binds | B2 |
| binds | B3 |
| binds | B4 |
| binds | B5 |
| binds | B6 |
| binds | B7 |
| binds | B8 |
| binds | B9 |
| binds | B10 |
| binds | B11 |
| binds | B12 |
| binds | B13 |
| binds | B14 |
| binds | B15 |
| binds | B16 |
| binds | B17 |

| binding result | Binder |
| --- | --- |
| binds | B18 |
| binds | B19 |
| binds | B20 |
| binds | B21 |
| binds | B22 |
| binds | B23 |
| binds | B24 |
| binds | B25 |
| binds | B26 |
| binds | B27 |
| binds | B28 |
| binds | B29 |
| binds | B30 |
| binds | B31 |
| binds | B32 |
| binds | B33 |
| binds | B34 |
